According to patent US9540424B2, “Serum albumin binding molecules” (BRISTOL-MYERS SQUIBB COMPANY, priority 2010, dated 2017):
“And” between values parts separate entries of the source, which are not always exact repeats. Equal entries are not always repeated. Each block holds one molecule with its values, some of them ahead of it.

Key:
[1] = system: HEK cells stably expressing human β-klotho; assay: HEK β-Klotho pERK 1/2 assay; format: cell-based; details: same dilutions as in parental HEK cells
Experimental: FGF21 induces ERK phosphorylation in the presence of β-klotho. Accordingly, the present HEK-β-klotho assay system was constructed to examine the functional activity of the FGF21-SABA fusions in vitro. Specifically, in vitro activity, potency (EC50) and efficacy (as a percentage of maximal activity observed from an FGF21 molecule that is not fused to a SABA), were determined for the SABA1-FGF21v1 (SEQ ID NO: 132) fusion protein, as measured in the HEK β-Klotho expressing stable cell pERK 1/2 assay using the non-fused His-tagged FGF21 (“FGFv1”; SEQ ID NO: 125) as a comparator.
A HEK cell line stably expressing human β-klotho was constructed. The human β-klotho construct encoded the full length protein under the control of a CMV promoter with a C-terminal FLAG tag. HEK 293 cells were transfected with the linearized cDNA using Lipofectamine 2000 (Invitrogen catalog #11668027) following the manufactures protocol using standard techniques. Positive clones were isolated after 14 days of selection in 600 ug/ml (Invitrogen catalog #10131) of geneticin in Dulbecco's Modified Eagle Medium with high glucose containing L-Glutamine, Hepes (Invitrogen catalog #12430054) and 10% FBS (HyClone catalog # SH30071). Positive stable clones were further characterized by Western Blot analysis and p-ERK activation by AlphaScreen (Perkin Elmer catalog # TGRES50K) analysis.
HEK cells stably expressing human β-klotho were plated at 20,000 cells/well in 96 well tissue culture plates in DMEM high glucose media (Gibco) containing 10% (v/v) FBS (Hyclone) and 600 μg/ml G418 (Gibco). The following day, the media was removed and replaced with DMEM high glucose media without serum and the cells were incubated overnight. The morning of the third day the serum free media was removed and the cells were incubated for a total of seven minutes with dilutions of the proteins made in PBS containing 3% (w/v) fatty acid free human serum albumin. Dilutions were tested in triplicate, one well on each of three plates. At the end of the seven minute incubation, the protein dilutions were removed and 100 μl of 1x AlphaScreen lysis buffer (Perkin-Elmer) was added per well and allowed to incubate with shaking for approximately 10-15 minutes. The plates containing the cellular lysates were frozen at −80° C. for at least 30 minutes or until ready to assay. Four μl from each well of thawed cell lysate was analyzed for pERK 1/2 using the Surefire AlphaScreen pERK 1/2 kit (Perkin Elmer) using 384 well white Proxiplates (Perkin Elmer) following the manufacturer's directions. Plates were incubated at room temperature for two hours in the dark and then read on an Envision 2103 Multiplate reader (Perkin Elmer). Data were analyzed using Graph Pad Prism software using a non-linear regression analysis.

[2] = system: parental HEK cells, which do not express β-klotho; assay: pERK 1/2 specificity assay in parental HEK cells; format: cell-based, human
Description: FGF1 was used as a positive control in those experiments.

[3] = target: T1, HSA (Homo sapiens, UniProt P02768); assay: SPR (Biacore T100) kinetics of FGF21-SABA1 fusions: HSA; format: binding; details: 37° C.
Experimental: (§1) The binding competency and thermodynamic characterization of FGF21-SABA fusion variants to human serum albumin were performed using Isothermal Titration calorimetry on a Microcal VP-ITC instrument (Microcal Inc. Amherst Mass., USA). […] The detailed experimental conditions are described below.
(§2) For the calorimetry assay, the FGF21-SABA variant SABA1-FGF21v1 (SEQ ID NO: 132) was used. […] For the SPR studies, SABA1-FGF21v1 and SABA1-FGF21v3 (SEQ ID NO: 134) were examined.
(§3) Serum albumins were dissolved in PBS buffer (10 mM sodium phosphate, 130 mM sodium chloride, pH 7.1) to a concentration of 10 mg/ml, and subsequently diluted to 8-10 μg/ml in 10 mM sodium acetate pH 5.0 for immobilization. Serum albumins were immobilized on a Series S CMS sensor chip using standard ethyl(dimethylaminopropyl) carbodiimide (EDC)/N-hydroxysuccinimide (NHS) chemistry in HBS-EP+ running buffer at 25° C., following general manufacturer guidelines. Flow cell 1 was activated with EDC/NHS and blocked with ethanolamine. […] Kinetic experiments were performed in PBS buffer containing 0.05% tween-20 (running buffer) at either 25° C. or 37° C. […] These samples were injected across flow cells 1-4 for 300 s, with a 420 s dissociation time, at flow rates of 30 μl/min or 60 μl/min to check for mass transfer limitation. All surfaces were regenerated with 2 pulses of 10 mM glycine pH 2.0 at 30 μl/min for 30 s. Raw sensograms were “double-referenced” by subtracting flow cell 1 data from flow cell 2, 3 or 4 data, and then subtracting a separate buffer cycle from each sensogram. The double-referenced sensogram data was fitted to a 1:1 Langmuir model using Biacore T100 Evaluation software version 2.0.2 to determine the association rate constant (ka), the dissociation rate constant (kd), and the equilibrium dissociation constant (KD).

[4] = target: T2, MuSA (Mus musculus, UniProt P07724); assay: SPR (Biacore T100) kinetics of FGF21-SABA1 fusions: MuSA; format: binding, murine; design: purchased Sigma A3559; details: 37° C., up to 1 uM analyte
T2 sequence (P07724 25-608): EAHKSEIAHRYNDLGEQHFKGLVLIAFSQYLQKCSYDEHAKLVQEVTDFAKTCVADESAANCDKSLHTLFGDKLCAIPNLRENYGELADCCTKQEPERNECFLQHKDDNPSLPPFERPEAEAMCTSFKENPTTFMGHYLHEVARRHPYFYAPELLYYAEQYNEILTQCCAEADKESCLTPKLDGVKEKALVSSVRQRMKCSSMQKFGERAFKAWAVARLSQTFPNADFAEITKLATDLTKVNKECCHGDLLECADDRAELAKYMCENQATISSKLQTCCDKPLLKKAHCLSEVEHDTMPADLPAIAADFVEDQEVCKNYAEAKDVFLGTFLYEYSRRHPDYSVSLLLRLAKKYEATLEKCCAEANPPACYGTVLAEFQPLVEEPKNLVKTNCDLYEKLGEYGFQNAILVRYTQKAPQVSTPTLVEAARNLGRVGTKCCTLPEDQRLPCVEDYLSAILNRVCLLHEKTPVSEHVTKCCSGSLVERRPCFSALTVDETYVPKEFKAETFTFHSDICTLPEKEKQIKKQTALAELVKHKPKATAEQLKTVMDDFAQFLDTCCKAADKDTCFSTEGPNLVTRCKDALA
Experimental: as §1, §2, §3

[5] = Pharmacokinetics of His-tagged FGF21 and SABA-FGF21 fusions in monkeys; format: in vivo, cynomolgus monkeys; details: monkeys
Experimental: Various in vivo studies were conducted in mice and monkeys to characterize the pharmacokinetics of His-tagged FGF21 and SABA1-FGF21v1. An ELISA-based ligand binding assay was used to measure the His-tagged FGF21 and SABA1-FGF21v1 in all mouse and monkey plasma samples.
Following subcutaneous administration, His-tagged FGF21 was well absorbed.
Following subcutaneous administration, SABA1-FGF21v1 was well absorbed.

[6] = target: T3, CySA (Macaca fascicularis, UniProt A2V9Z4); assay: SPR (Biacore T100) kinetics of FGF21-SABA1 fusions: CySA; format: binding, cynomolgous monkey; details: 37° C.
T3 construct: purchased Equitech-Bio CMSA
T3 sequence (A2V9Z4 25-608): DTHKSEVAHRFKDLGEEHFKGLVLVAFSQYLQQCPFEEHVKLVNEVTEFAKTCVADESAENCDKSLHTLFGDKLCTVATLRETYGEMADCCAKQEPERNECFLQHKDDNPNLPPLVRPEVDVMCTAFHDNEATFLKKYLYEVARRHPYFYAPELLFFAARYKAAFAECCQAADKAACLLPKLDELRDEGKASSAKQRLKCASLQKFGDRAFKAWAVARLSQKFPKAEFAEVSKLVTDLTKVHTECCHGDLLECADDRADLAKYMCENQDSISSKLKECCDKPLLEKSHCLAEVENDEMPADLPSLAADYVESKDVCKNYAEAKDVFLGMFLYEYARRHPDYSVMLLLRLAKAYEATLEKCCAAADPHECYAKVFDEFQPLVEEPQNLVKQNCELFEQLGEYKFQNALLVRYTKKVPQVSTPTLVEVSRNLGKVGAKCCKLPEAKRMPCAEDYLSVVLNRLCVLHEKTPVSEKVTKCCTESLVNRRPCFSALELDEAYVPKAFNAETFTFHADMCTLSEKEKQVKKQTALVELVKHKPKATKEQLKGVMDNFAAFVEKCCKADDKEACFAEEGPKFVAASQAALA
Experimental: as §1, §2, §3

[7] = Single dose pharmacokinetics of SABA1.1 and SABA5.1 in cynomolgus monkeys; format: in vivo; details: 1 mpk IV
Experimental: The pharmacokinetics were evaluated using a quantitative ELISA-based assay that was developed to detect the Adnectin™ in plasma samples.

[8] = Differential Scanning calorimetry (DSC) thermostability of midscaled SABAs; format: physicochemical; details: 1 mg/ml solution, 5° C. to 95° C. at 1 degree per minute
Experimental: Differential Scanning calorimetry (DSC) analyses of the midscaled SABAs were performed to determine their respective Tm's. A 1 mg/ml solution was scanned in a N-DSC II calorimeter (calorimetry Sciences Corp) by ramping the temperature from 5° C. to 95° C. at a rate of 1 degree per minute under 3 atm pressure. The data was analyzed vs. a control run of the appropriate buffer using a best fit using Orgin Software (OrginLab Corp).

[9] = Half-life of HSA and of SABA1-4 with or without HSA in mice (ELISA, WinNonlin); format: in vivo, Ncr nude female mice; details: for half-life in mice plasma: injected without HSA; for increase in half life when co-injected with HSA: with HSA vs without HSA, mice
Experimental: The pharmacokinetic parameters of each Adnectin™ were determined using non-compartmental modeling with WinNonlin software.

[10] = target: RhSA (Macaca mulatta, UniProt Q28522); assay: Biacore kinetics of SABAs on immobilized serum albumin: RhSA; format: binding, rhesus
RhSA, sequence (Q28522 17-600): as the sequence (A2V9Z4 25-608) above
Experimental: (§4) In addition, binding to albumin was carried out under various pH conditions ranging from pH 5.5 to pH 7.4.

[11] = Analytical size exclusion chromatography (SEC) of SABAs; format: physicochemical; details: midscaled material
Experimental: Size exclusion chromatography (SEC) was performed on the SABAs resulting from the HTPP. SEC of HTPP derived material was performed using a Superdex 200 5/150 or Superdex 75 5/150 column (GE Healthcare) on an Agilent 1100 or 1200 HPLC system with UV detection at A214 nm and A280 nm and with fluorescence detection (excitation=280 nm, emission=350 nm). A buffer of 100 mM sodium sulfate, 100 mM sodium phosphate, 150 mM sodium chloride, pH 6.8 at appropriate flow rate of the SEC column employed. Gel filtration standards (Bio-Rad Laboratories, Hercules, Calif.) were used for molecular weight calibration.
Midscale expression and purification yielded highly pure and active Adnectins™ that were expressed in a soluble form and purified from the soluble fraction of the bacterial cytosol.
Standard size exclusion chromatography (SEC) was performed on the candidate SABAs resulting from the midscale process. SEC of midscaled material was performed using a Superdex 200 10/30 or on a Superdex 75 10/30 column (GE Healthcare) on an Agilent 1100 or 1200 HPLC system with UV detection at A214 nm and A280 nm and with fluorescence detection (excitation=280 nm, emission=350 nm). A buffer of 100 mM sodium sulfate, 100 mM sodium phosphate, 150 mM sodium chloride, pH 6.8 at appropriate flow rate of the SEC column employed. Gel filtration standards (Bio-Rad Laboratories, Hercules, Calif.) were used for molecular weight calibration.

[12] = target: T1, HSA
Experimental: as §4

[13] = target: T2, MuSA; assay: Biacore kinetics of SABAs on immobilized serum albumin: MuSA; format: binding
[14] = intravenous, His-tagged FGF21 0.5 mg/kg, SABA1-FGF21v1 0.08 mg/kg
[15] = co-injected with HSA (3-4 molar excess), tail vein

Molecule: FGF1: positive control in the pERK specificity assays [reference compound]
- activity in HEK β-klotho stable cells (specificity experiment) [1]: showed activity
- stimulation of pERK 1/2 levels in parental HEK cells [2]: did

B1: SABA1-FGF21v3: SABA1-FGF21 fusion, SEQ ID NO: 134; 299 aa; DNA SEQ ID NO: 177 (protein)
chain: MGVSDVPRDLEVVAATPTSLLISWHSYYEQNSYYRITYGETGGNSPVQEFTVPYSQTTATISGLKPGVDYTITVYAVYGSKYYYPISINYRTEIDKPSQHHHHHHGSGSGSGSGSGSGSPIPDSSPLLQFGGQVRQRYLYTDDAQQTEAHLEIREDGTVGGAADQSPESLLQLKALKPGVIQILGVKTSRFLCQRPDGALYGSLHFDPEACSFRELLLEDGYNVYQSEAHGLPLHLPGNKSPHRDPAPRGPARFLPLPGLPPALPEPPGILAPQPPDVGSSDPLSMVGPSQGRSPSYAS
- ka ([3]; flow rate 30 μl/min): 6160 M⁻¹ s⁻¹
- kd ([3]; flow rate 30 μl/min): 0.00103 s⁻¹
- ka ([3]; flow rate 60 μl/min): 5870 M⁻¹ s⁻¹
- kd ([3]; flow rate 60 μl/min): 0.00107 s⁻¹
- binding to MuSA ([4]; flow rate 30 μl/min): no binding observed up
- binding to MuSA ([4]; flow rate 60 μl/min): no binding observed up
- increase of t1/2 compared to His-tagged FGF21 [5]: ~27 fold
- CL (total body plasma clearance, CLTp) [5, 14]: 2.4 mL/h/kg
- T½ (terminal half-life) [5, 14]: 52.7 h
- Vdss (steady-state volume of distribution, Vss) [5, 14]: 0.11 L/kg
- ka ([6]; flow rate 30 μl/min): 5310 M⁻¹ s⁻¹
- kd ([6]; flow rate 30 μl/min): 0.0117 s⁻¹
- ka ([6]; flow rate 60 μl/min): 4380 M⁻¹ s⁻¹
- kd ([6]; flow rate 60 μl/min): 0.0136 s⁻¹

B2: SABA1.1: core SABA1 with N-terminal MGVSDVPRDLE, C-terminal EIDKPSQ and His6 tag; SEQ ID NO: 89 (protein)
chain: MGVSDVPRDLEVVAATPTSLLISWHSYYEQNSYYRITYGETGGNSPVQEFTVPYSQTTATISGLKPGVDYTITVYAVYGSKYYYPISINYRTEIDKPSQHHHHHH
- AUCall ([7]; individual monkeys #1 and #2): 673.7 µg·h/mL and 625.1 µg·h/mL
- Cl_obs ([7]; individual monkeys #1 and #2): 1.45 mL/h/kg and 1.60 mL/h/kg
- Cmax ([7]; individual monkeys #1 and #2): 9030 ng/mL and 7240 ng/mL
- Vz_obs ([7]; individual monkeys #1 and #2): 0.2008 L/kg and 0.3152 L/kg
- t½ ([7]; individual monkeys #1 and #2): 95.8 h and 136.6 h
- DSC (Tm) [8]: 63.9 °C
- PK (T½) Mice [9, 15]: 5.6 h
- half-life in mice plasma [9]: 0.56 h
- increase in half life when co-injected with HSA [9]: ~10 fold
- cross reaction with RhSA [10]: cross reacted
- SEC Dimer (%) [11]: 7.7%
- SEC Monomer (%) [11]: 92.3%
- Resistant to pH 7.4→5.5? ([12]; binding to HSA from pH 7.4 down to pH 5.5, symbols not defined): fits biochemical criteria for pH resistance and affinity/kinetics down to pH 5.5
- cross reaction with MuSA [13]: did not cross react

More lines, main results first:

- cross reaction with RhSA [10]: cross reacted
- cross reaction with MuSA [13]: did not cross react
B3: SABA3.1: His-tagged SABA3 sequence (protein)
chain: MGVSDVPRDLEVVAATPTSLLISWSNDGPGLSYYRITYGETGGNSPVQEFTVPSSQTTATISGLKPGVDYTITVYAVSYYTKKAYSAGPISINYRTEIDKPSQHHHHHH
modifications: His6 tag
- DSC (Tm) [8]: 65.2 °C
- PK (T½) Mice ([9]; co-injected with HSA): 0.533 h
- PK (T½) Mice [9, 15]: 0.53 h
- half-life in mice plasma [9]: 0.28 h
- Comments: T½ in mice in words ([9]; mouse, in vivo): Poor T½ observed in mice
- increase in half life when co-injected with HSA [9]: ~2 fold
- SEC Dimer (%) [11]: BLD
- SEC Monomer (%) [11]: 99%

- Comments: binding affinity for RhSA [10]: Poor binding affinity for RhSA.
- cross reaction with RhSA [10]: cross reacted
- Comments: decrease in KD observed at pH <6.0 ([12]; pH <6.0): >2-fold decrease in KD observed at
- cross reaction with MuSA [13]: did not cross react
B4: SABA5.1: His-tagged SABA5 sequence (protein)
chain: MGVSDVPRDLEVVAATPTSLLISWEDDSYYSRYYRITYGETGGNSPVQEFTVPSDLYTATISGLKPGVDYTITVYAVTYDVTDLIMHEPISINYRTEIDKPSQHHHHHH
modifications: His6 tag
- AUCall ([7]; Mean, N 2): 246.882 µg·h/mL
- Cl_obs ([7]; Mean, N 2): 4.089 mL/h/kg
- Cmax ([7]; Mean, N 2): 17358 ng/mL
- HL_Lambda_z ([7]; Mean, N 2): 12.186 h
- Vz_obs ([7]; Mean, N 2): 0.072507 L/kg
- DSC (Tm) [8]: 70.1 °C
- PK (T½) Mice [9, 15]: 4.6 h
- SEC Dimer (%) [11]: 12%
- SEC Monomer (%) [11]: 88%
